Data: US6818612B2, “Use of parvovirus capsid particles in the inhibition of cell proliferation and migration” (priority 1998, dated 2004)

Columns and labels:
human fetal liver cells [1] = assay: Colony formation assay (Stem cell CFU kit, 11 day) of fetal liver cells; assay type: cell-based; conditions: FIG. 9
human fetal liver cells [2] = assay: as above; assay type: cell-based; conditions: fetal liver cells
Text: In a first set of experiments, it was discovered that B19 parvovirus capsids inhibit hematopoiesis and that these molecules could be used to reduce the overproduction of red blood cells, white blood cells, and blood platelets, as is experienced by patients suffering from hematological proliferative diseases, such as Polycytemia Vera. (See FIG. 1A). In a first set of experiments, fresh human fetal liver cells, umbilical cord blood cells, and bone marrow cells were contacted with recombinant B19 parvovirus capsids in a colony formation assay. The general features of a colony formation assay are depicted in FIG. 1B. The ability of the B19 parvovirus capsids to inhibit hematopoiesis was verified by the reduction of colony formation in the presence of the capsids, as compared to untreated control populations of cells. A more detailed description of these experiments is provided below.
To obtain fetal liver tissue, human fetuses 6-12 weeks of gestational age were obtained from legal abortions; the patients had volunteered to donate fetal tissue. Gestational age was estimated according to specific anatomical markers and is given as menstruational age. Abortions were performed with vacuum aspirations. Fetal liver was dissected under sterile conditions, placed in a sterile tube containing RPMI1640 and disintegrated by passage through a vinyl mesh to form a single cell suspension. Nucleated cells were then washed three times, counted and diluted in culture medium.
A commercial kit—the “Stem cell CFU kit” (GIBCO BRL, Life Technology Inc., NY, USA)—was used to perform the colony formation assays. The kit provides a semi-solid support that mimics the extracellular matrix produced by stromal cells. Other components included in the kit are: Iscove's modified Dulbecco's medium, modified fetal bovine serum, methylcellulose, 2-mercaptoethanol, conditioned medium and erythropoietin. The colonies that were formed in the assay were identified as BFU-E (burst forming unit-erythroid cells) with densely packed hemoglobonized cells, CFU-GM (colony forming units-granulocytes, macrophages) with arrangements of non-hemoglobinized cells, and CFU-GEMM (colony forming units-granulocytes, erythroid cells, macrophages, megakaryocytes) with hemoglobinized cells and small and large peripheral cells.
Recombinant B19 parvovirus empty capsid particles (Kajigaya et al., Proc Natl Acad Sci USA, 88:4646 (1991)) were prepared in a recombinant baculovirus-insect cell (Spodofera frugiperda) expression system. (Kajigaya et al., Proc Natl Acad Sci USA, 88:4646 (1991)). The isolated or purified capsids were diluted in buffer (20 mM Tris, 0.5M NaCl, pH 8.5) and 30 μL of each dilution was added to approximately 25×10^3 cells (50×10^3 for postnatal cells) in 100 μL of culture medium and incubated for 1 hour at 4° C. The mixtures were then transferred to incubation dishes and culture medium was added to a final volume of 0.5 ml per well. The cells were then incubated for 11 days in a humidified atmosphere at 5% CO2, and were scored for BFU-E, CFU-GM and CFU-GEMM derived colony formation.

[3] = system: human umbilical vein endothelial cells (HUVEC); assay: Endothelial cell proliferation assay (crystal violet, A540); assay type: cell-based
Procedure: To determine whether B19 parvovirus capsids can inhibit endothelial cell proliferation, assays were performed in which primary human umbilical vein endothelial cells, plated at a density of 1.5×10^4 cells per well in a 24 well plate, were incubated with B19 parvovirus capsids in the presence of 0.5% fetal calf serum+10.0 ng/ml basic fibroblast growth factor. The various B19 parvovirus capsid preparations (i.e., VP1/2 or capsids made with only VP1 or VP2) were added to each well on the following day and the cells with capsids were incubated for additional 72 hours. Cell proliferation was then determined by using a crystal violet dye assay. Accordingly, capsid treated cells were washed in PBS, fixed in 3.7% formaldehyde, and incubated with crystal violet. The dye was then removed by extensive washes with distilled water. The cell-associated crystal violet was solubilized with 10% acetic acid and quantified at absorbance 540 nm in an ELISA plate reader.
Thus, from left to right, the bars represent the absorbance at 540 nm with 0 μg/ml, 0.01 μg/ml, 0.1 μg/ml, 1.0 μg/ml, and 10.0 μg/ml. […] The standard deviation was within 10%.

HUVEC cells = assay: Endothelial cell migration assay (modified Boyden chamber); assay type: cell-based, human
Procedure: The effect of B19 parvovirus capsid preparations on cell migration was also determined. The migration assays were performed using a modified Boyden chamber assay (Neuroprobe, Inc.). Basic fibroblast growth factor (40 ng/ml) was added to stimulate migration of the HUVEC cells through a collagen 1 coated 8 μm pore size millipore filter. Cells were incubated for 60 min with the various B19 parvovirus capsid preparations (i.e., VP1/2 or capsids made with only VP1 or VP2) prior to conducting the migration assay. To perform the migration assay, the Boyden chamber was incubated for 4.5 h at 37° C. in a 10% CO2 atmosphere. The filters were subsequently removed and were fixed in 3.7% formaldehyde. Cell migration was visualized by staining the filters overnight in Gill's Hematoxylin. The number of migrating cells were scored by counting stained cells on the migrating side of the filter per high power magnification field. (See FIG. 15).

Row | Molecule | inhibition of hematopoiesis and cell growth (colony formation) by deletion series peptides (human fetal liver cells [1]) | inhibition of colony formation (human fetal liver cells [2]; 1 μg/ml VP2 capsid, FIG. 4) | colony formation, % of the control (human fetal liver cells [2]; 30 μg/mL, FIG. 5) | inhibition of hematopoietic cell growth (human fetal liver cells [2]; 30 μg/ml, FIG. 3) | lowest concentration at which inhibition of colony formation of hematopoietic cells was seen (human fetal liver cells [2]; 11 day colony formation assay, 'as little as' / 'as low as') | inhibition of colony formation of hematopoietic stem cells compared with VP1/2 capsids (human fetal liver cells [2]; FIG. 4) | inhibition of endothelial cell proliferation ([3]; 10.0 μg/ml, FIG. 14) | lowest concentration that efficiently inhibits endothelial cell proliferation ([3]; 72 hours, 10.0 ng/ml basic fibroblast growth factor, FIG. 14, 'as low as') | inhibition of endothelial cell migration compared with other capsid preparations (HUVEC cells; FIG. 15) | lowest concentration that effectively inhibited endothelial cell migration (HUVEC cells; basic fibroblast growth factor 40 ng/ml, FIG. 15, 'as low as')
1 | NKGTQQYTDQ (OTHER INFORMATION: Peptide fragments derived from parvovirus capsid particles) [Peptide IV] | significantly inhibit hematopoiesis and cell growth | – | – | – | – | – | – | – | – | –
2 | QQY [Peptide VIII] | significantly inhibit hematopoiesis and cell growth | – | – | – | – | – | – | – | – | –
3 | VP2 capsids: B19 parvovirus capsids having only VP2 (protein) MTSVNSAEASTGAGGGGSNSVKSMWSEGATFSANSVTCTFSRQFLIPYDPEHHYKVFSPAASSCHNASGKEAKVCTISPIMGYSTPWRYLDFNALNLFFSPLEFQHLIENYGSIAPDALTVTISEIAVKDVTDKTGGGVQVTDSTTGRLCMLVDHEYKYPYVLGQGQDTLAPELPIWVYFPPQYAYLTVGDVNTQGISGDSKKLASEESAFYVLEHSSFQLLGTGGTASMSYKFPPVPPENLEGCSQHFYEMYNPLYGSRLGVPDTLGGDPKFRSLTHEDHAIQPQNFMPGPLVNSVSTKEGDSSNTGAGKALTGLSTGTSQNTRISLRPGPVSQPYHHWDTDKYVTGINAISHGQTTYGNAEDKEYQQGVGRFPNEKEQLKQLQGLNMHTYFPNKGTQQYTDQIERPLMVGSVWNRRALHYESQLWSKIPNLDDSFKTQFAALGGWGLHQPPPQIFLKILPQSGPIGGIKSMGITTLVQYAVGIMTVTMTFKLGPRKATGRWNPQPGVYPPHAAGHLPYVLYDPTATDAKQHHRHGYEKPEELWTAKSRVHPL | – | Approximately 50% | less than 30 % of the control | significant inhibition | 3 µg/mL | as effectively as VP1/2 capsids | significant inhibition | 1.0 µg/mL | significantly more potent than that observed with either native capsids (VP1/2) or capsids having only VP1 | 1 µg/mL
